In publication PMC8873477, “Structural basis of adenylyl cyclase 9 activation” (Nature Communications, 2022):

Target: T1, C-terminally truncated bovine AC9_(1250) (residues 1-1250 of AC9) (bovine, UniProt E1BM79 1-1250)
T1 construct: the purification is said to be identical to that of AC9; source: HEK293F cells, transient transfection (PEI), purified as AC9
T1 sequence (looked up): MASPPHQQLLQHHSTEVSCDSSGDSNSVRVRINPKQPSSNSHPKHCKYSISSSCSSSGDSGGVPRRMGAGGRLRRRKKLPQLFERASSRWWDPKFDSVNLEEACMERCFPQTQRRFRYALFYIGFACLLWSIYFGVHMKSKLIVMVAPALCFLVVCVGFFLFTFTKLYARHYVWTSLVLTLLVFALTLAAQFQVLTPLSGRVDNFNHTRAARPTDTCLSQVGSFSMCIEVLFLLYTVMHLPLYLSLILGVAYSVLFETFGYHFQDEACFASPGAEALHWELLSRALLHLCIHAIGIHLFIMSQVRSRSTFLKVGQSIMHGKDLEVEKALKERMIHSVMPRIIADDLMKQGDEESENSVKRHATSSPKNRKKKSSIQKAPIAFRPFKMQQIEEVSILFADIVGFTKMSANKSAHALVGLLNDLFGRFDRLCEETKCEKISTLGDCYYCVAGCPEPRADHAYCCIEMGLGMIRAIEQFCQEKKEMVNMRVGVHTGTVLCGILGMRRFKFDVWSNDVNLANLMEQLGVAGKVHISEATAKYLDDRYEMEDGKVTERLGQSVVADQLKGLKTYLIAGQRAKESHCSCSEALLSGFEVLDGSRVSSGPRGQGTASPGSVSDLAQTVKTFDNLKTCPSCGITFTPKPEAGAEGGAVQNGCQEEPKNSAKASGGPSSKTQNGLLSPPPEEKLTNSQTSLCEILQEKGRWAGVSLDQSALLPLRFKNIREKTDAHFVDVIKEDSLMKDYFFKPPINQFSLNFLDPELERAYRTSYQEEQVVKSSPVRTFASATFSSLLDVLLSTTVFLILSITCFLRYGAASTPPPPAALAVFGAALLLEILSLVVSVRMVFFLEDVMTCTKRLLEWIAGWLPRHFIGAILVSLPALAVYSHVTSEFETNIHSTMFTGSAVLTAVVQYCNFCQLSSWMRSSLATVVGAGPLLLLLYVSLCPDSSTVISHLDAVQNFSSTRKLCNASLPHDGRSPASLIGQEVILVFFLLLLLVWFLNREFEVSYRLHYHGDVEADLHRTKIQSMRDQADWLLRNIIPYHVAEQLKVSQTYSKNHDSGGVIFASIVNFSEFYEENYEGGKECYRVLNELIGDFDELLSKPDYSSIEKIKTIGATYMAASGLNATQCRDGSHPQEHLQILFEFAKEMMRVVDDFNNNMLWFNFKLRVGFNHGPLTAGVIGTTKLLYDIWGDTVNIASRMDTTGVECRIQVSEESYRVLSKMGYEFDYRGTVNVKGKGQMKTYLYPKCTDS
Experiment: cryo-EM structure; AC9_(1250) at 5 mg/ml with 5 mM MnCl2, 0.5 mM MANT-GTP and a 2-fold molar excess of GTPγS-activated Gαs, 30 min at 4 °C; no forskolin; soluble part refined to 3.8 Å
Settings: both partners purified

B1: bovine Gαs (G protein αs subunit), GTPγS-activated (natural protein, UniProt P04896-1 1-394, looked up)
chain: MGCLGNSKTEDQRNEEKAQREANKKIEKQLQKDKQVYRATHRLLLLGAGESGKSTIVKQMRILHVNGFNGEGGEEDPQAARSNSDGEKATKVQDIKNNLKEAIETIVAAMSNLVPPVELANPENQFRVDYILSVMNVPDFDFPPEFYEHAKALWEDEGVRACYERSNEYQLIDCAQYFLDKIDVIKQDDYVPSDQDLLRCRVLTSGIFETKFQVDKVNFHMFDVGGQRDERRKWIQCFNDVTAIIFVVASSSYNMVIREDNQTNRLQEALNLFKSIWNNRWLRTISVILFLNKQDLLAEKVLAGKSKIEDYFPEFARYTTPEDATPEPGEDPRVTRAKYFIRDEFLRISTASGDGRHYCYPHFTCAVDTENIRRVFNDCRDIIQRMHLRQYELL
notes: bovine Gαs, Uniprot ID P04896-1; also called G protein α subunit; source: High Five insect cells, baculovirus, purified (Ni-NTA, Superdex 200 SEC)
binding result: binds
